Data reported in patent publication US4605614A, “Method for measuring plasmin” (Nitto Boseki Co., Ltd., priority 1981, dated 1986).

Tests used:
Assay in all cases: Km, Vmax and Vmax/Km of substrates for plasmin (pig)
Assay type in all cases: biochemical, Porcine (pig)
[1] = substrate: NCCCC[C@H](NC(=O)[C@H](Cc1ccccc1)NC(=O)[C@H](N)CC(=O)OC1CCCCC1)C(=O)Nc1ccc(O)c(C(=O)O)c1; conditions: other: TABLE 2, CHA substrates, plasmin (pig), 2,6-xylenol 615 nm
[2] = substrate: CCCC(=O)NCCCC[C@@H](N)C(=O)N[C@@H](Cc1ccccc1)C(=O)N[C@@H](CCCCN)C(=O)Nc1ccc(O)c(C(=O)O)c1; conditions: other: TABLE 2, CHA substrates, plasmin (pig), 2,6-xylenol 615 nm
[3] = substrate: NCCCC[C@H](NC(=O)[C@H](Cc1ccccc1)NC(=O)[C@H](N)CCC(=O)NCCCc1ccccc1)C(=O)Nc1ccc([N+](=O)[O-])cc1; conditions: other: TABLE 1, PNA substrates, plasmin (pig), 405 nm
[4] = substrate: Cc1ccc(C(=O)NCCCC[C@@H](N)C(=O)N[C@@H](Cc2ccccc2)C(=O)N[C@@H](CCCCN)C(=O)Nc2ccc(O)c(C(=O)O)c2)cc1; conditions: other: TABLE 2, CHA substrates, plasmin (pig), 2,6-xylenol 615 nm
[5] = substrate: NCCCC[C@H](NC(=O)[C@H](Cc1ccccc1)NC(=O)[C@H](N)CCC(=O)OC1CCCCC1)C(=O)Nc1ccc([N+](=O)[O-])cc1; conditions: other: TABLE 1, PNA substrates, plasmin (pig), 405 nm
[6] = substrate: Cc1ccc(S(=O)(=O)NCCCC[C@H](N)C(=O)N[C@@H](Cc2ccccc2)C(=O)N[C@@H](CCCCN)C(=O)Nc2ccc(O)c(C(=O)O)c2)cc1; conditions: other: TABLE 2, CHA substrates, plasmin (pig), 2,6-xylenol 615 nm
[7] = substrate: Cc1ccc(S(=O)(=O)NCCCC[C@@H](N)C(=O)N[C@@H](CC(C)C)C(=O)N[C@@H](CCCCN)C(=O)Nc2ccc([N+](=O)[O-])cc2)cc1; conditions: other: TABLE 1, PNA substrates, plasmin (pig), 405 nm
[8] = substrate: NCCCC[C@H](NC(=O)[C@H](Cc1ccccc1)NC(=O)[C@H](N)CCCCNC(=O)OCc1ccccc1)C(=O)Nc1ccc(O)c(C(=O)O)c1; conditions: other: TABLE 2, CHA substrates, plasmin (pig), 2,6-xylenol 615 nm
[9] = substrate: Cc1ccc(S(=O)(=O)NCCCC[C@@H](N)C(=O)N[C@@H](Cc2ccccc2)C(=O)N[C@@H](CCCCN)C(=O)Nc2ccc(O)c(C(=O)O)c2)cc1; conditions: other: TABLE 2, CHA substrates, plasmin (pig), 2,6-xylenol 615 nm
[10] = substrate: Cc1ccc(S(=O)(=O)Oc2ccc(C[C@@H](N)C(=O)N[C@@H](Cc3ccccc3)C(=O)N[C@@H](CCCCN)C(=O)Nc3ccc(O)c(C(=O)O)c3)cc2)cc1; conditions: other: TABLE 2, CHA substrates, plasmin (pig), 2,6-xylenol 615 nm
[11] = substrate: NCCCC[C@H](NC(=O)[C@H](Cc1ccccc1)NC(=O)[C@H](N)CCCCNC(=O)Cc1ccccc1)C(=O)Nc1ccc(O)c(C(=O)O)c1; conditions: other: TABLE 2, CHA substrates, plasmin (pig), 2,6-xylenol 615 nm
[12] = substrate: Cc1ccc(S(=O)(=O)NCCCC[C@@H](N)C(=O)N[C@@H](CC(C)C)C(=O)N[C@@H](CCCCN)C(=O)Nc2ccc(O)c(C(=O)O)c2)cc1; conditions: other: TABLE 2, CHA substrates, plasmin (pig), 2,6-xylenol 615 nm
[13] = substrate: NCCCC[C@H](NC(=O)[C@H](Cc1ccccc1)NC(=O)[C@H](N)CCC(=O)NCCc1ccccc1)C(=O)Nc1ccc([N+](=O)[O-])cc1; conditions: other: TABLE 1, PNA substrates, plasmin (pig), 405 nm
[14] = substrate: Cc1ccc(CCNC(=O)CC[C@@H](N)C(=O)N[C@@H](Cc2ccccc2)C(=O)N[C@@H](CCCCN)C(=O)Nc2ccc(O)c(C(=O)O)c2)cc1; conditions: other: TABLE 2, CHA substrates, plasmin (pig), 2,6-xylenol 615 nm
[15] = substrate: Cc1ccc(S(=O)(=O)NCCCC[C@@H](N)C(=O)N[C@@H](Cc2ccccc2)C(=O)N[C@@H](CCCCN)C(=O)Nc2ccc([N+](=O)[O-])cc2)cc1
[16] = substrate: CC(C)OC(=O)C[C@@H](N)C(=O)N[C@@H](Cc1ccccc1)C(=O)N[C@@H](CCCCN)C(=O)Nc1ccc(O)c(C(=O)O)c1; conditions: other: TABLE 2, CHA substrates, plasmin (pig), 2,6-xylenol 615 nm
[17] = substrate: Cc1ccc(C(=O)NCCCC[C@@H](N)C(=O)N[C@@H](Cc2ccccc2)C(=O)N[C@@H](CCCCN)C(=O)Nc2ccc([N+](=O)[O-])cc2)cc1; conditions: other: TABLE 1, PNA substrates, plasmin (pig), 405 nm
[18] = substrate: NCCCC[C@H](NC(=O)[C@H](Cc1ccccc1)NC(=O)[C@H](N)CCCCNS(=O)(=O)c1ccc2ccccc2c1)C(=O)Nc1ccc(O)c(C(=O)O)c1; conditions: other: TABLE 2, CHA substrates, plasmin (pig), 2,6-xylenol 615 nm
[19] = substrate: Cc1ccc(S(=O)(=O)NCCC[C@@H](N)C(=O)N[C@@H](Cc2ccccc2)C(=O)N[C@@H](CCCCN)C(=O)Nc2ccc(O)c(C(=O)O)c2)cc1; conditions: other: TABLE 2, CHA substrates, plasmin (pig), 2,6-xylenol 615 nm
[20] = substrate: NCCCC[C@@H](N)C(=O)N[C@@H](Cc1ccccc1)C(=O)N[C@@H](CCCCN)C(=O)Nc1ccc(O)c(C(=O)O)c1; conditions: other: TABLE 2, CHA substrates, plasmin (pig), 2,6-xylenol 615 nm

B1: plasmin (pig) (Sus scrofa) (protein)
chain: RIYLSECKTGNGKNYRGTTSKTKSGVICQKWSVSSPHIPKYSPEKFPLAGLEENYCRNPDNDEKGPWCYTTDPETRFDYCDIPECEDECMHCSGEHYEGKISKTMSGIECQSWGSQSPHAHGYLPSKFPNKNLKMNYCRNPDGEPRPWCFTTDPNKRWEFCDIPRCTTPPPTSGPTYQCLKGRGENYRGTVSVTASGHTCQRWSAQSPHKHNRTPENFPCKNLEENYCRNPDGETAPWCYTTDSEVRWDYCKIPSCGSSTTSTEYLDAPVPPEQTPVAQDCYRGNGESYRGTSSTTITGRKCQSWVSMTPHRHEKTPGNFPNAGLTMNYCRNPDADKSPWCYTTDPRVRWEYCNLKKCSETEQQVTNFPAIAQVPSVEDLSEDCMFGNGKRYRGKRATTVAGVPCQEWAAQEPHRHSIFTPETNPRAGLEKNYCRNPDGDDNGPWCYTTNPQKLFDYCDVPQCVTSSFDCGKPKVEPKKCPARVVGGCVSIPHSWPWQISLRHRYGGHFCGGTLISPEWVLTAKHCLEKSSSPSSYKVILGAHEEYHLGEGVQEIDVSKLFKEPSEADIALLKLSSPAIITDKVIPACLPTPNYVVADRTACYITGWGETKGTYGAGLLKEARLPVIENKVCNRYEYLGGKVSPNELCAGHLAGGIDSCQGDSGGPLVCFEKDKYILQGVTSWGLGCALPNKPGVYVRVSRFVTWIEEIMRRN
Km [1]: 379 µM
Km [2]: 239 µM
Km [3]: 39.3 µM
Km [4]: 76.2 µM
Km [5]: 32.2 µM
Km [6]: 292 µM
Km [7]: 189 µM
Km [8]: 496 µM
Km [9]: 206 µM
Km [10]: 154 µM
Km [11]: 357 µM
Km [12]: 1000 µM
Km [13]: 27.9 µM
Km [14]: 417 µM
Km ([15]; other: Porcine Plasmin, comparison table in description): 16 µM
Km ([15]; other: TABLE 1, PNA substrates, plasmin (pig), 405 nm): 15.8 µM
Km [16]: 352 µM
Km [17]: 15.5 µM
Km [18]: 179 µM
Km [19]: 542 µM
Km [20]: 222 µM
